Source: PMC3082519, “Molecular Determinants and Genetic Modifiers of Aggregation and Toxicity for the ALS Disease Protein FUS/TLS”

Target: GST-FUS (Homo sapiens, UniProt P35637 1-526)
Assay: EMSA; 0.15-5 uM GST-FUS; yeast tRNA 25 ng, heparin added after binding; 10 mM Tris pH 7.5, 75 mM KCl, 4 mM MgCl2, 25 mM phosphocreatine, 1.25 mM ATP, 1.3% polyvinyl alcohol, 25 ng yeast tRNA, 0.8 mg BSA, 1 mM DTT, RNasin, 0.1 mM EDTA, 10% glycerol; 10 ul, 20 min at 30 C; then heparin 0.5 ug/ml; 4.5% native gel
Settings: protein: recombinant; tags: N-terminal GST, TEV-cleavable (GST-TEV-FUS); label: 32P-UTP; single strand

GST-FUS, sequence (P35637 whole entry): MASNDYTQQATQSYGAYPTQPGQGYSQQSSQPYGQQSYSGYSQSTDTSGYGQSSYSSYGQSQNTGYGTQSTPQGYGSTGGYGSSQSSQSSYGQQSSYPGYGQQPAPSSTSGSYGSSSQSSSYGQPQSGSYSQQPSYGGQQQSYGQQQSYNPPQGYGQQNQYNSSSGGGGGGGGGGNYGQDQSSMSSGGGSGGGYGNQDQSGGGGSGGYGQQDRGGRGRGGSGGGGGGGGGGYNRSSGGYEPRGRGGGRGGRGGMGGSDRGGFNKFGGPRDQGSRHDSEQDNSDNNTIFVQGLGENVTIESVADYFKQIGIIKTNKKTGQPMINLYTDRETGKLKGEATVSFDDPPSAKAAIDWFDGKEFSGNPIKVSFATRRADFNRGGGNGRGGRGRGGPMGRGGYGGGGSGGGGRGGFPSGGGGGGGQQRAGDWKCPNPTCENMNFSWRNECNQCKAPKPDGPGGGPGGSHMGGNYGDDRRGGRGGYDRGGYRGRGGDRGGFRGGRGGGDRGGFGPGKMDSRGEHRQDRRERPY

B1: FUS RNA probe (GU-repeat) (ssRNA)
RNA: GGGGAAAAUUAAUGUGUGUGUGUGGAAAAUU
- binding result: binds
